Test results as given in IntAct's records for PubMed 29039417.

B1: Protein PTHB1 (Homo sapiens), Q3SYG4 (parent)
chain: MSLFKARDWWSTILGDKEEFDQGCLCLANVDNSGNGQDKIIVGSFMGYLRIFSPHPAKTGDGAQAEDLLLEVDLRDPVLQVEVGKFVSGTEMLHLAVLHSRKLCVYSVSGTLGNVEHGNQCQMKLMYEHNLQRTACNMTYGSFGGVKGRDLICIQSMDGMLMVFEQESYAFGRFLPGFLLPGPLAYSSRTDSFLTVSSCQQVESYKYQVLAFATDADKRQETEQQKLGSGKRLVVDWTLNIGEQALDICIVSFNQSASSVFVLGERNFFCLKDNGQIRFMKKLDWSPSCFLPYCSVSEGTINTLIGNHNNMLHIYQDVTLKWATQLPHIPVAVRVGCLHDLKGVIVTLSDDGHLQCSYLGTDPSLFQAPNVQSRELNYDELDVEMKELQKIIKDVNKSQGVWPMTEREDDLNVSVVVSPNFDSVSQATDVEVGTDLVPSVTVKVTLQNRVILQKAKLSVYVQPPLELTCDQFTFEFMTPDLTRTVSFSVYLKRSYTPSELEGNAVVSYSRPTDRNPDGIPRVIQCKFRLPLKLICLPGQPSKTASHKITIDTNKSPVSLLSLFPGFASQSDDDQVNVMGFHFLGGARITVLASKTSQRYRIQSEQFEDLWLITNELILRLQEYFEKQGVKDFACSFSGSIPLQEYFELIDHHFELRINGEKLEELLSERAVQFRAIQRRLLARFKDKTPAPLQHLDTLLDGTYKQVIALADAVEENQGNLFQSFTRLKSATHLVILLIALWQKLSADQVAILEAAFLPLQEDTQELGWEETVDAAISHLLKTCLSKSSKEQALNLNSQLNIPKDTSQLKKHITLLCDRLSKGGRLCLSTDAAAPQTMVMPGGCTTIPESDLEERSVEQDSTELFTNHRHLTAETPRPEVSPLQGVSE
partner: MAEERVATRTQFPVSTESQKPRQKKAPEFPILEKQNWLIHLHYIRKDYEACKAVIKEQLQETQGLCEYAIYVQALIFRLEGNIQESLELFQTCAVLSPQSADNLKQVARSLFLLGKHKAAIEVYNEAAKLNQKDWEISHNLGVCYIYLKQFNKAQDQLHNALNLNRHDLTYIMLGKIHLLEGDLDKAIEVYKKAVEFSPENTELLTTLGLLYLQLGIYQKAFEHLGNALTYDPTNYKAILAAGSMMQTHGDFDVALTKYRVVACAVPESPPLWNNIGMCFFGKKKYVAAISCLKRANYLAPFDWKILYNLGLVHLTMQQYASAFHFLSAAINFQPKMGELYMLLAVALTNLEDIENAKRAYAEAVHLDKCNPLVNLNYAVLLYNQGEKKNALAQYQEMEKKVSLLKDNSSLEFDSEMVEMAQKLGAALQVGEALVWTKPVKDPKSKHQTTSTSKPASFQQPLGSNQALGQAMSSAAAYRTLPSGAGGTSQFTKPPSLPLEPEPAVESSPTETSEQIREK

Variants of: B1
Conditions: with bbs4_human BBS4, Q96RK4

Row | Variant | effect of a mutation on the interaction
1 | Q717E | with no effect
2 | Q717K | with no effect
3 | G718E | with no effect
4 | G718K | with no effect
5 | G718S | disrupting interaction strength
6 | N719A | disrupting interaction strength
7 | N719E | with no effect
8 | N719K | with no effect
9 | L720A | with no effect
10 | F721A | with no effect
11 | F721E | with no effect
12 | F721K | disrupting interaction strength
13 | Q722A | with no effect
14 | S723A | with no effect
15 | S723E | with no effect
16 | S723K | disrupting interaction strength
17 | S723P | disrupting interaction strength
18 | F724A | with no effect
19 | F724E | disrupting interaction strength
20 | F724K | with no effect
21 | T725A | with no effect
22 | T725K | with no effect
23 | R726A | with no effect
24 | K728E | with no effect
25 | S729A | with no effect
26 | S729E | with no effect

Row | Variant | effect of a mutation on the interaction
27 | S729K | with no effect
28 | T731E | disrupting interaction strength
29 | T731I | disrupting interaction strength
30 | T731K | with no effect
31 | H732E | with no effect
32 | L733E | with no effect
33 | V734A | with no effect
34 | I735E | with no effect
35 | L736A | with no effect
36 | L736E | with no effect
37 | L737K | with no effect
38 | I738K | disrupting interaction strength
39 | A739E | with no effect
40 | A739K | disrupting interaction strength
41 | L740E | with no effect
42 | L740K | with no effect
43 | W741A | with no effect
44 | W741E | with no effect
45 | W741K | with no effect
46 | Q742E | with no effect
47 | Q742K | with no effect
48 | K743A | with no effect
49 | L744A | with no effect
50 | L744E | with no effect
51 | L744K | with no effect
52 | A746K | with no effect

Row | Variant | effect of a mutation on the interaction
53 | D747A | disrupting interaction strength
54 | D747K | with no effect
55 | D747N | disrupting interaction strength
56 | Q748K | disrupting interaction strength
57 | Q748L | disrupting interaction strength
58 | A750K | with no effect
59 | I751A | with no effect
60 | I751K | with no effect
61 | L752A | with no effect
62 | L752E | with no effect
63 | E753A | with no effect
64 | E753K | with no effect
65 | A754E | with no effect
66 | A754K | with no effect
67 | A755E | with no effect
68 | F756A | with no effect
69 | F756E | with no effect
70 | F756K | with no effect
71 | L757A | with no effect
72 | L757K | with no effect
73 | P758A | with no effect
74 | L759A | with no effect
75 | L759E | with no effect
76 | L759K | with no effect
77 | D762A | with no effect
78 | D762E | with no effect

Row | Variant | effect of a mutation on the interaction
79 | D762K | with no effect
80 | T763A | with no effect
81 | T763K | with no effect
82 | Q764E | with no effect
83 | Q764K | with no effect
84 | L766A | with no effect
85 | L766E | with no effect
86 | G767K | with no effect
87 | W768A | with no effect
88 | W768E | with no effect
89 | W768K | with no effect
90 | E769A | with no effect
91 | E770K | with no effect
92 | T771A | with no effect
93 | T771E | with no effect
94 | V772K | disrupting interaction strength
95 | D773A | with no effect
96 | D773E | with no effect
97 | D773K | with no effect
98 | A774E | with no effect
99 | A774K | with no effect
100 | A775E | with no effect
101 | I776E | with no effect

Further lines, results first:

Row | effect of a mutation on the interaction | Variant
102 | with no effect | Q717A
103 | with no effect | G718A
104 | disrupting interaction strength | G718D
105 | disrupting interaction strength | G718T
106 | with no effect | L720E
107 | with no effect | L720K
108 | with no effect | Q722E
109 | with no effect | Q722K
110 | with no effect | T725E
111 | with no effect | R726E
112 | with no effect | R726K
113 | with no effect | L727A
114 | with no effect | L727E
115 | with no effect | L727K
116 | disrupting interaction strength | L727P
117 | with no effect | K728A
118 | disrupting interaction strength | K728R
119 | with no effect | A730E
120 | with no effect | A730K
121 | with no effect | T731A
122 | with no effect | H732A
123 | with no effect | H732K
124 | disrupting interaction strength | L733A
125 | with no effect | L733K
126 | with no effect | V734E

Row | effect of a mutation on the interaction | Variant
127 | with no effect | V734K
128 | with no effect | I735A
129 | with no effect | I735K
130 | with no effect | L736K
131 | with no effect | L737A
132 | with no effect | L737E
133 | disrupting interaction strength | I738A
134 | disrupting interaction strength | I738E
135 | with no effect | L740A
136 | with no effect | Q742A
137 | with no effect | K743E
138 | with no effect | S745A
139 | disrupting interaction strength | S745E
140 | with no effect | S745K
141 | with no effect | A746E
142 | with no effect | D747E
143 | disrupting interaction strength | Q748A
144 | with no effect | Q748E
145 | with no effect | V749A
146 | with no effect | V749E
147 | with no effect | V749K
148 | with no effect | A750E
149 | with no effect | I751E
150 | with no effect | L752K
151 | with no effect | A755K

Row | effect of a mutation on the interaction | Variant
152 | with no effect | L757E
153 | with no effect | P758E
154 | with no effect | P758K
155 | with no effect | Q760A
156 | with no effect | Q760E
157 | with no effect | Q760K
158 | with no effect | E761A
159 | with no effect | E761K
160 | with no effect | T763E
161 | with no effect | Q764A
162 | with no effect | E765A
163 | with no effect | E765K
164 | disrupting interaction strength | L766C
165 | with no effect | L766K
166 | with no effect | G767A
167 | with no effect | G767E
168 | with no effect | E769K
169 | disrupting interaction strength | E770A
170 | with no effect | T771K
171 | with no effect | V772A
172 | disrupting interaction strength | V772E
173 | with no effect | A775K
174 | with no effect | I776A
